# Laboratory results published in publication PMC4509486.
# Tests used:
# Assay in all cases: cross-linking; copper-phenanthroline (1 mM CuSO4/3 mM 1,10-phenanthroline) disulfide cross-linking of purified protein (1 mg/ml) in 20 mM HEPES pH 7.4, 150 mM NaCl, 1 mM TCEP, on ice 15 min; non-reducing SDS-PAGE; efficiency = dimer/(monomer + dimer)
# [1] = molecular target: GB1-TM-CC1 monocysteine variant A230C (not stated (human or mouse cDNA cloned)) (UniProt Q13586)
# [2] = molecular target: GB1-TM-CC1 monocysteine variant G226C (not stated (human or mouse cDNA cloned)) (UniProt Q13586)
# [3] = molecular target: GB1-TM-CC1 monocysteine variant I222C (not stated (human or mouse cDNA cloned)) (UniProt Q13586)
substance,measurement,setting,value
GB1-TM-CC1 monocysteine variant A230C (from UniProt Q13586 209-310) (domain or fragment),disulfide cross-linking efficiency,[1],> 70%
GB1-TM-CC1 monocysteine variant G226C (from UniProt Q13586 209-310) (domain or fragment),disulfide cross-linking efficiency,[2],> 70%
GB1-TM-CC1 monocysteine variant I222C (from UniProt Q13586 209-310) (domain or fragment),disulfide cross-linking efficiency,[3],> 70%
